Assay results taken from patent US20260070976A1 (Alector, published 2026).

Legend:
[1] = molecular target: recombinant human PILRB (human, UniProt Q9UKJ0 20-191); assay: SPR, Carterra LSA, steady-state fit
Protocol: (§1) Binding kinetics of human anti-PILRA-IgG4 antibodies were evaluated by surface plasmon resonance (SPR) using a Carterra LSA instrument (Carterra, Salt Lake City, UT). Antibodies were immobilized in duplicate arrays onto an HC30M sensor chip (Carterra) by amine coupling according to the manufacturer's protocol. After priming the immobilized antibodies with HBS-EP+ (Teknova, Hollister, CA, #8022) running buffer with 0.5 mg/mL BSA (MP Biomedicals LLC, #820451), the immobilized antibodies were tested for their ability to bind to recombinant human PILRA (SEQ ID NO:1) and cynomolgus PILRA (SEQ ID NO:120) and to human PILRB (SEQ ID NO:105) and cynomolgus PILRB (SEQ ID NO:121).
(§2) For binding kinetics analysis, human and cynomolgus PILRA and PILRB analytes were diluted in running buffer to 440 to 470 nM, and diluted 3-fold serially five times, to 1.8 to 1.9 nM, and injected for five minutes over the entire chip using the single channel flow cell to measure association of binding to the immobilized antibodies. Dissociation of the analytes was measured for five minutes, followed by regeneration of the chip with two 30-second injections of 10 mM glycine pH 2.0.
For the human PILRB interactions, the binding was too weak and heterogenous for kinetic constants to be calculated in this assay. Therefore, steady-state affinities were estimated based on the binding level of each analyte concentration at the end of the injections.

[2] = molecular target: recombinant human PILRA (human, UniProt Q9UKJ1 20-197); assay: SPR, Carterra LSA, antibody amine-coupled, kinetic fit
recombinant human PILRA, sequence (Q9UKJ1 20-197 limits assumed): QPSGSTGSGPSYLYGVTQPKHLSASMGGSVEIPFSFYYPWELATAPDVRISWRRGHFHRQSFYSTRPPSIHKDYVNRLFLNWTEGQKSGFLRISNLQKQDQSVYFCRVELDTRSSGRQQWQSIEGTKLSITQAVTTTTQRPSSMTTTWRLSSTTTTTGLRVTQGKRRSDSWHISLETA
Protocol: as §1, §2

[3] = molecular target: T1, recombinant cynomolgus PILRA (SEQ ID NO:120) (cynomolgus monkey); assay: as above
T1 construct: also called cyno PILRA
T1 sequence (chain, as listed by the source limits assumed): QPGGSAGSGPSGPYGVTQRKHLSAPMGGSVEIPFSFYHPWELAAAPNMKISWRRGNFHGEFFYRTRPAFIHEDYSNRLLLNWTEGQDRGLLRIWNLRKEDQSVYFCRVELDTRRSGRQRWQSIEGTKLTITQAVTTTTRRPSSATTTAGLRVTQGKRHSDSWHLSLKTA
Protocol: as §1, §2

recombinant human PILRB, sequence (Q9UKJ0 20-191 limits assumed): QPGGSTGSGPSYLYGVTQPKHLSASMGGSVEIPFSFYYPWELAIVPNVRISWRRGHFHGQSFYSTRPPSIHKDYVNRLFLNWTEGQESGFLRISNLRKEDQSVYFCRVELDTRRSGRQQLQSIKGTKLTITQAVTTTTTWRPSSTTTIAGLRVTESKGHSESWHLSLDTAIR

Binder	Kd [1] [nM]	Kd [2] [nM]	Kd [3] [nM]
X4 (antibody, human IgG4, V domains shown) VH: QVQLVQSGAEVKKPGSSVKVSCKASGYNFLNYDVNWVRQAPGQGLEWMGGIIPIFGTANYAQKFQGRVTITADESTSTAYMELSSLRSEDTAVYYCATGVGAGWFDPWGQGTLVTVSS VL: DIVMTQSPDSLAVSLGERATINCKSSQSVYFSPNNKNYLAWYQQKPGQPPKLLIYWASTRESGVPDRFSGSGSGTDFTLTISSLQAEDVAVYYCQQYFEEPYTFGQGTRLEIK	138	12	0.2
X23 (antibody, human IgG4, V domains shown) VH: QVQLVQSGAEVKKPGSSVKVSCKASGYNFLHYDVNWVRQAPGQGLEWMGGIIPIFGTANYAQKFQGRVTITADESTSTAYMELSSLRSEDTAVYYCATGVGAGWFDPWGQGTLVTVSS VL: not shown	35	3.9	0.3
X10 (antibody, human IgG4, V domains shown) VH: QVQLVQSGAEVKKPGSSVKVSCKASGYNFLNYDVNWVRQAPGQGLEWMGGIIPIFGTANYAQKFQGRVTITADESTSTAYMELSSLRSEDTAVYYCATGVGAGWFDPWGQGTLVTVSS VL: DIVMTQSPDSLAVSLGERATINCKSSQSVFFDENNKNYLAWYQQKPGQPPKLLIYWASTRESGVPDRFSGSGSGTDFTLTISSLQAEDVAVYYCQQYYEEPYTFGQGTRLEIK	68	3.2	0.3
X6 (antibody, human IgG4, V domains shown) VH: QVQLVQSGAEVKKPGSSVKVSCKASGYNFLNYDVNWVRQAPGQGLEWMGGIIPIFGTANYAQKFQGRVTITADESTSTAYMELSSLRSEDTAVYYCATGVGAGWFDPWGQGTLVTVSS VL: DIVMTQSPDSLAVSLGERATINCKSSQSVYFDVNNKNYLAWYQQKPGQPPKLLIYWASTRESGVPDRFSGSGSGTDFTLTISSLQAEDVAVYYCQQYFEEPYTFGQGTRLEIK	35	3.1	0.1
X5 (antibody, human IgG4, V domains shown) VH: QVQLVQSGAEVKKPGSSVKVSCKASGYNFLNYDVNWVRQAPGQGLEWMGGIIPIFGTANYAQKFQGRVTITADESTSTAYMELSSLRSEDTAVYYCATGVGAGWFDPWGQGTLVTVSS VL: DIVMTQSPDSLAVSLGERATINCKSSQSVFFDVNNKNYLAWYQQKPGQPPKLLIYWASTRESGVPDRFSGSGSGTDFTLTISSLQAEDVAVYYCQQYFEEPYTFGQGTRLEIK	35	2.4	0.1
X25 (antibody, human IgG4, V domains shown) VH: QVQLVQSGAEVKKPGSSVKVSCKASGYNFLNYDVNWVRQAPGQGLEWMGGIIPIFGTANYAQKFQGRVTITADESTSTAYMELSSLRSEDTAVYYCATAVGAGWFDPWGQGTLVTVSS VL: not shown	211	7	0.3
X15 (antibody, human IgG4, V domains shown) VH: QVQLVQSGAEVKKPGSSVKVSCKASGYNFLHYDVNWVRQAPGQGLEWMGGIIPIFGTANYAQKFQGRVTITADESTSTAYMELSSLRSEDTAVYYCATAVGAGWFDTWGQGTLVTVSS VL: DIVMTQSPDSLAVSLGERATINCKSSQSVFFDVNNKNYLAWYQQKPGQPPKLLIYWASTRESGVPDRFSGSGSGTDFTLTISSLQAEDVAVYYCQQYFEEPYTFGQGTRLEIK	2	0.1	0.1
X24 (antibody, human IgG4, V domains shown) VH: QVQLVQSGAEVKKPGSSVKVSCKASGYNFLHYDVNWVRQAPGQGLEWMGGIIPIFGTANYAQKFQGRVTITADESTSTAYMELSSLRSEDTAVYYCATGVGAGWFDPWGQGTLVTVSS VL: not shown	16	1.7	0.2
X19 (antibody, human IgG4, V domains shown) VH: QVQLVQSGAEVKKPGSSVKVSCKASGYNFLHYDVNWVRQAPGQGLEWMGGIIPIFGTANYAQKFQGRVTITADESTSTAYMELSSLRSEDTAVYYCATAVGAGWFDPWGQGTLVTVSS VL: DIVMTQSPDSLAVSLGERATINCKSSQSVFFDENNKNYLAWYQQKPGQPPKLLIYWASTRESGVPDRFSGSGSGTDFTLTISSLQAEDVAVYYCQQYYEEPYTFGQGTRLEIK	2	0.3	0.1
X9 (antibody, human IgG4, V domains shown) VH: QVQLVQSGAEVKKPGSSVKVSCKASGYNFLNYDVNWVRQAPGQGLEWMGGIIPIFGTANYAQKFQGRVTITADESTSTAYMELSSLRSEDTAVYYCATGVGAGWFDPWGQGTLVTVSS VL: DIVMTQSPDSLAVSLGERATINCKSSQSVFFDVNNKNYLAWYQQKPGQPPKLLIYWASTRESGVPDRFSGSGSGTDFTLTISSLQAEDVAVYYCQQYYEEPYTFGQGTRLEIK	39	2.8	0.1
X17 (antibody, human IgG4, V domains shown) VH: QVQLVQSGAEVKKPGSSVKVSCKASGYNFLHYDVNWVRQAPGQGLEWMGGIIPIFGTANYAQKFQGRVTITADESTSTAYMELSSLRSEDTAVYYCATAVGAGWFDTWGQGTLVTVSS VL: DIVMTQSPDSLAVSLGERATINCKSSQSVFFDENNKNYLAWYQQKPGQPPKLLIYWASTRESGVPDRFSGSGSGTDFTLTISSLQAEDVAVYYCQQYFEEPYTFGQGTRLEIK	2	0.4	0.1

Results, then the binder that gave them:

Kd [1] [nM]	Kd [2] [nM]	Kd [3] [nM]	Binder
199	8.1	0.3	X26 (antibody, human IgG4, V domains shown) VH: QVQLVQSGAEVKKPGSSVKVSCKASGYNFLNYDVNWVRQAPGQGLEWMGGIIPIFGTANYAQKFQGRVTITADESTSTAYMELSSLRSEDTAVYYCATAVGAGWFDPWGQGTLVTVSS VL: not shown
2	0.1	0.1	X32 (antibody, human IgG4, V domains shown) VH: QVQLVQSGAEVKKPGSSVKVSCKASGYNFLHYDVNWVRQAPGQGLEWMGGIIPIFGTANYAQKFQGRVTITADESTSTAYMELSSLRSEDTAVYYCATAVGAGWFDPWGQGTLVTVSS VL: DIVMTQSPDSLAVSLGERATINCKSSQSVFFDVNNKNYLAWYQQKPGQPPKLLIYWASTRESGVPDRFSGSGSGTDFTLTISSLQAEDVAVYYCQQYYEEPYTFGQGTRLEIK
87	13	0.5	X27 (antibody, human IgG4, V domains shown) VH: QVQLVQSGAEVKKPGSSVKVSCKASGYNFLNYDVNWVRQAPGQGLEWMGGIIPIFGTANYAQKFQGRVTITADESTSTAYMELSSLRSEDTAVYYCATAVGAGWFDPWGQGTLVTVSS VL: not shown
33	3.8	0.3	X28 (antibody, human IgG4, V domains shown) VH: QVQLVQSGAEVKKPGSSVKVSCKASGYNFLNYDVNWVRQAPGQGLEWMGGIIPIFGTANYAQKFQGRVTITADESTSTAYMELSSLRSEDTAVYYCATAVGAGWFDPWGQGTLVTVSS VL: not shown
2	0.6	0.1	X33 (antibody, human IgG4, V domains shown) VH: QVQLVQSGAEVKKPGSSVKVSCKASGYNFLHYDVNWVRQAPGQGLEWMGGIIPIFGTANYAQKFQGRVTITADESTSTAYMELSSLRSEDTAVYYCATAVGAGWFDPWGQGTLVTVSS VL: not shown
43	3.3	0.1	X30 (antibody, human IgG4, V domains shown) VH: QVQLVQSGAEVKKPGSSVKVSCKASGYNFLNYDVNWVRQAPGQGLEWMGGIIPIFGTANYAQKFQGRVTITADESTSTAYMELSSLRSEDTAVYYCATGVGAGWFDPWGQGTLVTVSS VL: DIVMTQSPDSLAVSLGERATINCKSSQSVYFDVNNKNYLAWYQQKPGQPPKLLIYWASTRESGVPDRFSGSGSGTDFTLTISSLQAEDVAVYYCQQYYEEPYTFGQGTRLEIK
38	2.2	0.1	X31 (antibody, human IgG4, V domains shown) VH: QVQLVQSGAEVKKPGSSVKVSCKASGYNFLNYDVNWVRQAPGQGLEWMGGIIPIFGTANYAQKFQGRVTITADESTSTAYMELSSLRSEDTAVYYCATGVGAGWFDPWGQGTLVTVSS VL: not shown
